Assays:
[1] = target: T1, hCLDN18.2 peptide (amino acid residues 28-37 of hCLDN18.2) (human); experiment: ELISA: hCLDN18.2 peptide (aa 28-37) coated on the plate at 1 ug/ml, antibody dilution series up to 150 ng/mL, detection with goat anti-mouse IgG-HRP, OD450-OD620
T1 construct: Synthesised by Sangon Biotech; coated on ELISA plates; also called antigen peptide; hCLDN18.2 Peptide (aa28-37)
T1 peptide: DQWSTQDLYN
Experimental: (§1) 1 μg/ml of peptide ([…]) was coated onto the high-binding clear polystyrene 96 well plates and blocked with blocking buffer. Serial diluted antibodies (from 150 to 0.0732 ng/ml) in blocking buffer were then added and incubated for 1.5 hrs at room temperature. The plate was washed 6 times using washing buffer and then 100 μl/well Goat pAb to Ms IgG(HRP) was added for incubation at room temperature for 1.5 hr. After washing with washing buffer, TMB was added to react with HRP on the plate. Then OD450 nm of the plate was read by SpectraMax i3x (Molecular Devices). 14G11G2D2 and 69H2F7E6 can specifically bind with the peptide with high affinity while GC182 can not recognize the epitope in the linear peptide. (FIG. 3)

[2] = target: T2, Human recombinant CLDN18.2 (N-6His) variant (human); experiment: ELISA on coated recombinant CLDN18.2 (N-6His) variant (1 µg/ml)
T2 construct: Bought fusion polypeptide; also called recombinant hCLDN18.2 variant protein; Novoprotein NC101
T2 chain: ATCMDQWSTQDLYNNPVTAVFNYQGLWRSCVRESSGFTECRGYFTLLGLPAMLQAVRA
Experimental: 1 μg/ml of human recombinant CLDN18.2 (N-6His) variant or human recombinant CLDN18.1 (N-8His) variant (100 μL/well) was coated onto the high-binding clear polystyrene 96 well plates and blocked with blocking buffer. Serial diluted antibodies (from 100 to 0.0244 ng/ml) in blocking buffer were added and incubated for 1.5 hrs at room temperature. The plate was washed 6 times using washing buffer (PBS+0.1% Tween) washer and then 100 μl/well Goat pAb to Ms IgG (HRP) was added for incubation at RT for 1.5 hr. After washing with washing buffer, TMB was added to react with RP on the plate. Then OD450 nm of the plate was read by SpectraMax i3x (Molecular Devices).

[3] = target: T2, Human recombinant CLDN18.2 (N-6His) …; experiment: BLI (ForteBio Octet RED 96): His-tagged recombinant hCLDN18.2 variant loaded on Ni-NTA biosensors, antibody in solution at 50 nM and 25 nM
Experimental: (§2) 100 nM human recombinant CLDN18.2 (N-6His) (Novoprotein, NC101) protein in 1×Kinetics Buffer ((PBS+0.1% BSA+0.02% Tween20) were loaded onto pre-wet Ni-NTA biosensors (PALL, 18-5101) for 200s. After equilibrated in 1×Kinetics Buffer as baseline (60s), the sensor was immersed into serial diluted antibodies (50 nM, 25 nM) with 1×Kinetics Buffer respectively and incubated for 200s to determine the association (kon), followed by dissociation in 1×Kinetics Buffer for 200s (koff). The biosensors are regenerated for 5s in Regeneration Buffer, followed by neutralization for 5s in Neutralization Buffer for 3 times. All procedure were performed at 30° C. with Octet RED 96 (PALL). The binding affinity KD was calculated and analyzed using the ratio of koff to kon. (FIG. 6).

human CLDN18.1 [4] = target: T3, human CLDN18.1 (human, UniProt P56856 1-261); experiment: ICC on FFPE HEK293-CLDN18.1 cell block sections; clone 69H2F7E6; '-' = negative staining
T3 construct: also called hCLDN18.1
T3 sequence: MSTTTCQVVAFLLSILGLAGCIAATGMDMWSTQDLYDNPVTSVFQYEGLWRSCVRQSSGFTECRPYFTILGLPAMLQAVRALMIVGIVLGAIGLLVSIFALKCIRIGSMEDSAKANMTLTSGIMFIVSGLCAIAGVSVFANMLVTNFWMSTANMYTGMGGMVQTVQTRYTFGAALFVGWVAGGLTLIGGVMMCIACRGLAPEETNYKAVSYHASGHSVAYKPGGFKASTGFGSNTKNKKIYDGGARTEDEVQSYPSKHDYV

[5] = target: T2, Human recombinant CLDN18.2 (N-6His) …; experiment: BLI (ForteBio Octet RED 96), His-tagged antigen on Ni-NTA sensors, antibody 50 and 25 nM in solution, 30 C
Experimental: as §2

human CLDN18.1 [6] = target: T3, human CLDN18.1; experiment: ICC on FFPE HEK293-CLDN18.1 cell block sections; clone 14G11F5E1; '-' = negative staining
[7] = target: T1, hCLDN18.2 peptide (amino acid residues …); experiment: ELISA on coated peptide
Experimental: as §1

B1: 69H2 (antibody, mouse IgG1, kappa, V domains shown)
VH: QVQLQQSGPELMKPGASLQISCKASGYFFTTYYIHWVKQRPGQGLEWIGWIYPRGGNTVYNEKFKGKATLTSDTSSSTAYMQLSSLTSEDSAVYYCAINYRSTFGYWGQGTLVTVSA
VL: DVLMTQTPLSLPVSLGDQASISCRSSQNIVHSNGNTYLEWYLQKPGQSPKLLIYKISNRFSGVPDRFSGSGSGTDFTLKISRVEAEDLGVYYCFQGSHVPFTFGSGTKLEIKR
notes: Mouse antibody; the recombinant form is VH/VL fused to mouse IgG1 / kappa constant regions; also called 69H2F7E6; 69H2D3B1
EC50 [1]: 0.0143 mg/L
EC50 [2]: 0.0139 mg/L
koff [3]: 0.000695 s⁻¹
kon [3]: 471000 M⁻¹ s⁻¹
binding result (human CLDN18.1 [4]): no binding (tested: 1 nM)
Kd [5]: 1.48 nM

B2: 14G11 (antibody, mouse IgG1, kappa, V domains shown)
VH: QVQLQQSGPELVRPGASVKISCKASGYRFTRNYFHWVKQRPGQGLEWIGWIYPGGFDIEYSEKFKGKATLTTDTSSSTAYMLLTSLTSEDSAVYYCAINYGSTFGYWGQGTLVTVSV
VL: DVLMTQTPLSLPVSLGDQASISCRSSQNIVHSNGNTYLEWYLQRPGQSPKLLIYKVSNRFSGVPDRFSGSGSGTDFTLKINRVEAEDLGVYYCFQGSHVPFTFGSGTKLEIKR
notes: Mouse antibody; the recombinant form is VH/VL fused to mouse IgG1 / kappa constant regions; also called 14G11G2D2; 14G11A4E1
EC50 [1]: 0.027 mg/L
EC50 [2]: 0.0127 mg/L
binding result (human CLDN18.1 [6]): no binding (tested: 0.5 nM)
koff [3]: 0.000111 s⁻¹
kon [3]: 522000 M⁻¹ s⁻¹
Kd [5]: 0.213 nM

B3: GC182 (antibody, V domains shown)
VH: QIQLVQSGPELKKFGETVKISCKASGYTFTDYSIHWVKQAPGKGLKWMGWINTETGVPTYADDFKGRFAFSLETSASTAYLQINNLKNEDTATYFCARRTGFDYWGQGTTLTVSS
VL: DIVMTQAAFSIPVTLGTSASISCRSSKNLLHSDGITYLYWYLQRPGQSPQLLIYRVSNLASGVPNRFSGSESGTDFTLRISRVEAEDVGVYYCVQVLELPFTFGGGTKLEIK
notes: also called anti-CLDN18.2 antibody GC182
binding result [7]: no binding (tested: 150 ng/ml (highest concentration tested))

Reference: patent US20230331836A1 (SUZHOU TRANSCENTA THERAPEUTICS, published 2023)
